# Reference: US20230227512A1
# Columns and labels:
# [1] = target: BG505 SOSIP.664 trimer+sCD4 complex (HIV-1 strain BG505; human) (UniProt P01730); assay: SPR read-out on captured 3074 IgG of trimer incubated with sCD4
# [2] = target: BG505.SOSIP.664.201C-433C HIV-1 Env ectodomain trimer (HIV-1 strain BG505); assay: SPR, single-cycle kinetics
Substance,t1/2 of CD4-induced appearance of binding [1],fold faster off-rate relative to parent SOSIP.664 [2],fold reduction in KD (affinity) relative to SOSIP.664 [2]
3074 antibody,4.2 h,–,–
soluble CD4 (sCD4) (from UniProt P01730 26-208) (receptor),–,10 fold,10 fold
